Assay results reported in PMC4256047, “Structural and Functional Profiling of Environmental Ligands for Estrogen Receptors” (Environmental Health Perspectives, 2014).
Where no end group is shown, it is not given here. fluorescein = fluorescein label on the N-terminus of the peptide

Columns and labels:
Settings in all cases: both partners purified
[1] = molecular target: T1, human wt-ERα LBD (estrogen receptor alpha ligand-binding domain, amino acids 302-552) (human, UniProt P03372 302-552); experiment: fluorescence polarisation; fluorescence anisotropy; 4 nM fluorescein-SRC-1 NR2 peptide, LBD diluted 2-fold from 10 uM (ERα) or 20 uM (ERβ); with OHT (4-hydroxytamoxifen) at 20 uM (ERα) or 40 uM (ERβ); 20 mM Tris pH 8.0, 150 mM NaCl, 5 mM DTT, 10% glycerol
T1 sequence (looked up): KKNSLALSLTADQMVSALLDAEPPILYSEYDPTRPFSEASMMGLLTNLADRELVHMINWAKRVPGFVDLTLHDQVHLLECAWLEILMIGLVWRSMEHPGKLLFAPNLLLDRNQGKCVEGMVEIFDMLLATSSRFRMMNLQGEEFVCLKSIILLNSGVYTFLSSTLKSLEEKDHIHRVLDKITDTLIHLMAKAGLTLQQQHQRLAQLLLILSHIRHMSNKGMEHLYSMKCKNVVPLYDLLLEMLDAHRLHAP

[2] = molecular target: T2, human wt-ERβ LBD (estrogen receptor beta ligand-binding domain, amino acids 261-502) (human, UniProt Q92731 261-502); experiment: as above
T2 construct: Cloned into pET-32a; N-terminal thioredoxine-hexahistidine tag removed with TEV protease; not shown: thioredoxin, N-terminal, cleaved; His6, N-terminal, cleaved
T2 sequence (Q92731 261-502): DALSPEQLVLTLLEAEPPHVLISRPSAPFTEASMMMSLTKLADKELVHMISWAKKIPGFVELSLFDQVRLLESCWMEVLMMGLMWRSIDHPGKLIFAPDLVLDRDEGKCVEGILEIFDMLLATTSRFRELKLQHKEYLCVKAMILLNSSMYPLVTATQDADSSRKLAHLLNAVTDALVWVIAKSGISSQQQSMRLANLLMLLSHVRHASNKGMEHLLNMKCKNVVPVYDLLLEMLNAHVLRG

[3] = molecular target: T1, human wt-ERα LBD (estrogen receptor …); experiment: fluorescence polarisation; fluorescence anisotropy; 4 nM fluorescein-SRC-1 NR2 peptide, LBD diluted 2-fold from 10 uM (ERα) or 20 uM (ERβ); in the absence of ligand (apo-receptor); 20 mM Tris pH 8.0, 150 mM NaCl, 5 mM DTT, 10% glycerol
[4] = molecular target: T2, human wt-ERβ LBD (estrogen receptor …); experiment: as above
[5] = molecular target: T1, human wt-ERα LBD (estrogen receptor …); experiment: fluorescence polarisation; fluorescence anisotropy; 4 nM fluorescein-SRC-1 NR2 peptide, LBD diluted 2-fold from 10 uM (ERα) or 20 uM (ERβ); with α-ZA at 20 uM (ERα) or 40 uM (ERβ); 20 mM Tris pH 8.0, 150 mM NaCl, 5 mM DTT, 10% glycerol
[6] = molecular target: T2, human wt-ERβ LBD (estrogen receptor …); experiment: fluorescence polarisation; fluorescence anisotropy; 4 nM fluorescein-SRC-1 NR2 peptide, LBD diluted 2-fold from 10 uM (ERα) or 20 uM (ERβ); with HPTE at 20 uM (ERα) or 40 uM (ERβ); 20 mM Tris pH 8.0, 150 mM NaCl, 5 mM DTT, 10% glycerol
[7] = molecular target: T2, human wt-ERβ LBD (estrogen receptor …); experiment: fluorescence polarisation; fluorescence anisotropy; 4 nM fluorescein-SRC-1 NR2 peptide, LBD diluted 2-fold from 10 uM (ERα) or 20 uM (ERβ); with BBP at 20 uM (ERα) or 40 uM (ERβ); 20 mM Tris pH 8.0, 150 mM NaCl, 5 mM DTT, 10% glycerol
[8] = molecular target: T1, human wt-ERα LBD (estrogen receptor …); experiment: fluorescence polarisation; fluorescence anisotropy; 4 nM fluorescein-SRC-1 NR2 peptide, LBD diluted 2-fold from 10 uM (ERα) or 20 uM (ERβ); with DDE at 20 uM (ERα) or 40 uM (ERβ); 20 mM Tris pH 8.0, 150 mM NaCl, 5 mM DTT, 10% glycerol
[9] = molecular target: T2, human wt-ERβ LBD (estrogen receptor …); experiment: fluorescence polarisation; fluorescence anisotropy; 4 nM fluorescein-SRC-1 NR2 peptide, LBD diluted 2-fold from 10 uM (ERα) or 20 uM (ERβ); with chlordecone at 20 uM (ERα) or 40 uM (ERβ); 20 mM Tris pH 8.0, 150 mM NaCl, 5 mM DTT, 10% glycerol
[10] = molecular target: T2, human wt-ERβ LBD (estrogen receptor …); experiment: fluorescence polarisation; fluorescence anisotropy; 4 nM fluorescein-SRC-1 NR2 peptide, LBD diluted 2-fold from 10 uM (ERα) or 20 uM (ERβ); with butylparaben at 20 uM (ERα) or 40 uM (ERβ); 20 mM Tris pH 8.0, 150 mM NaCl, 5 mM DTT, 10% glycerol
[11] = molecular target: T2, human wt-ERβ LBD (estrogen receptor …); experiment: fluorescence polarisation; fluorescence anisotropy; 4 nM fluorescein-SRC-1 NR2 peptide, LBD diluted 2-fold from 10 uM (ERα) or 20 uM (ERβ); with 4-OP at 20 uM (ERα) or 40 uM (ERβ); 20 mM Tris pH 8.0, 150 mM NaCl, 5 mM DTT, 10% glycerol

B1: fluorescein-RHKILHRLLQEGS peptide corresponding to the NR box 2-binding motif of SRC-1 (peptide)
peptide: fluorescein-RHKILHRLLQEGS
notes: also called SRC-1 NR2 peptide; fluorescein-labeled SRC-1 NR2 peptide; source: bought: EZbiolab
Work on B1 yielded a Kd [1] of 23.6 µM, a Kd [2] of 38.8 µM and a Kd [3] of 6.28 µM. The Kd [4] was 4.54 µM, the Kd [5] was 330 nM and the Kd [6] was 10.9 µM. For the same binder, the Kd [7] was 10.6 µM, the Kd [8] was 4.1 µM and the Kd [9] was 9.13 µM. The Kd [10] was 1130 nM and the Kd [11] was 1550 nM.
